From patent US12435158

Legend:
Assay in all cases: SPR Biacore 8k, antibody captured
[1] = target: lambda free light chain Sigma
[2] = target: lambda Bence Jones protein Lam893c
[3] = target: lambda Bence Jones protein Lam885
[4] = target: lambda free light chain MyBio
[5] = target: lambda Bence Jones protein Lam134c
[6] = target: lambda Bence Jones protein Lam788a

Kd [1]: 0.522 nM
Kd [2]: 0.0401 nM
Kd [3]: 0.0707 nM
Kd [4]: 0.0437 nM
Kd [5]: 0.0453 nM
Kd [6]: 0.11 nM
B1: 10B3-VL1 (antibody, human IgG1, kappa, V domains shown)
VH: EVQLVESGGGLVKPGGSLRLSCAASGFTFSSYSMNWVRQAPGKGLEWVSFISSNRNYIYYADSVKGRFTISRDNAKNSLYLQMNSLRAEDTAVYYCASLANWGTYFDYWGQGTLVTVSS
VL: DIQMTQSPSSLSASVGDRVTITCRASQGISSWLAWYQQKPEKAPKSLIYAASSLQSGVPSRFSGSGSGTDFTLTISSLQPEDFATYYCRQYNSYPLTFGGGTKVEIRR
